The values below come from paper PMC11452484 (Nature Communications, 2024).

This data set deals with the molecule itself. Nature of the data set: cryo-EM structure.

The stoichiometry N is a count of units in the complex or per binding partner.

B1: G. sulfurreducens SPARSA complex (short pAgo/Sir2-APAZ heterodimer) (complex)
chain 1: not shown
chain 2: MDVLTDNEFYQHYLQNSQHMMWFLGAGTSRSAGLPTASDIIWDLKHRYYCLHENQDYQKHDINNHAIKSKIQSYMDSKGFPLQWSPEEYSFYFELVFRDDYEAQRKYLLEALASRKVSLNIGHRVLAALLEMNQTKVVFTTNFDDVIETAFSDISGKHLSVYHLEGSYAALSALNTEAFPIYAKIHGDFRYQKIKNLTPDLQTNDREIHKCFLAAAIRFGLVVSGYSGRDENVMTMLRAAIDQNNAFPHGLYWTVPSISKSEPAVQDLITYAQGKGVRAYLVETGTFDEMLSKIWRQVKDKPAAIDAKVRTARVCPVSIPLPGPGKSFPALRTNALPVVTQSIRCGVVTLASPITFSELKERISQKSPKALLTYTEKVLFLGGEPEIRKIFSNDEINSIGQYYIDEIAQSVAASTFLKSFVEEAILTALLREKPILHRVRHRTHYAVIPNASAKDDRFLDLRKAVGFKGDLGYITGNVTNAKELSWAEAVSIRLEERGGKLWIMLKPEIWIKPLDRREEATDFIRSRRRYRFNQCSYQILDAWIKILFGSIGGGGTVNISCFPDAEFKAEFEIGTRTAFSLGVGYGR
Consider B1, for which the “stoichiometry N” value was found to be 4.

B2: Geobacter sulfurreducens Sir2-APAZ (natural protein, UniProt Q74DF6 1-587, looked up)
chain: MDVLTDNEFYQHYLQNSQHMMWFLGAGTSRSAGLPTASDIIWDLKHRYYCLHENQDYQKHDINNHAIKSKIQSYMDSKGFPLQWSPEEYSFYFELVFRDDYEAQRKYLLEALASRKVSLNIGHRVLAALLEMNQTKVVFTTNFDDVIETAFSDISGKHLSVYHLEGSYAALSALNTEAFPIYAKIHGDFRYQKIKNLTPDLQTNDREIHKCFLAAAIRFGLVVSGYSGRDENVMTMLRAAIDQNNAFPHGLYWTVPSISKSEPAVQDLITYAQGKGVRAYLVETGTFDEMLSKIWRQVKDKPAAIDAKVRTARVCPVSIPLPGPGKSFPALRTNALPVVTQSIRCGVVTLASPITFSELKERISQKSPKALLTYTEKVLFLGGEPEIRKIFSNDEINSIGQYYIDEIAQSVAASTFLKSFVEEAILTALLREKPILHRVRHRTHYAVIPNASAKDDRFLDLRKAVGFKGDLGYITGNVTNAKELSWAEAVSIRLEERGGKLWIMLKPEIWIKPLDRREEATDFIRSRRRYRFNQCSYQILDAWIKILFGSIGGGGTVNISCFPDAEFKAEFEIGTRTAFSLGVGYGR
Regarding B2, the binding result is recorded as “binds”.
